Laboratory results taken from paper PMC2756588.

T1: Pin3, Q06449
T1 sequence (Q06449 53-122, looked up): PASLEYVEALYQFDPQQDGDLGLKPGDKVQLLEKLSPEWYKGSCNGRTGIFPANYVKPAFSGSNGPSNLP

T2: Hof1, Q05080
T2 sequence (Q05080 590-669, looked up): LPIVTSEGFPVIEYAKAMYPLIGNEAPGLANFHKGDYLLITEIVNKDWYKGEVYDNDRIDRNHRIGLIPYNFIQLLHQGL

T3: Nbp2, Q12163
T3 sequence (Q12163 103-180, looked up): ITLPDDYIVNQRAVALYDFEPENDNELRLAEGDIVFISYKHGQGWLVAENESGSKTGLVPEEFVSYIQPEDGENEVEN

T4: Sla1-2, P32790
T4 sequence (P32790 60-140, looked up): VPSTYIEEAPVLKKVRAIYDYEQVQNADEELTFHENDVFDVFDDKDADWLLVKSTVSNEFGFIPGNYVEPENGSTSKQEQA

T5: Bzz1-1, P38822
T5 sequence (P38822 478-572, looked up): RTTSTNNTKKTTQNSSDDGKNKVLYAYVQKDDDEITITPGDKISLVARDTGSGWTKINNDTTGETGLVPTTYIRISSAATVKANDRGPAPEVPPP

T6: Lsb1, P53281
T6 sequence (P53281 45-122, looked up): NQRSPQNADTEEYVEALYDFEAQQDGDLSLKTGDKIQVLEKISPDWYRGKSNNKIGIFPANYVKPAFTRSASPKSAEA

T7: Fus1, P11710
T7 sequence (P11710 432-512, looked up): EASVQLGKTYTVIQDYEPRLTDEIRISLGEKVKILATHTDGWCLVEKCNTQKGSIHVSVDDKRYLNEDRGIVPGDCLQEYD

T8: Cyk3, Q07533
T8 sequence (Q07533 1-83, looked up): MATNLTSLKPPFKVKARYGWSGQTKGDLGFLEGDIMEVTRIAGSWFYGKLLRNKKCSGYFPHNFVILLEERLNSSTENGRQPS

T9: Hse1, P38753
T9 sequence (P38753 208-285, looked up): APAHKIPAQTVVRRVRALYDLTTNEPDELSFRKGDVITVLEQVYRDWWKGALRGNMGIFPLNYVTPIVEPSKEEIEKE

T10: Lsb3, P43603
T10 sequence (P43603 385-451, looked up): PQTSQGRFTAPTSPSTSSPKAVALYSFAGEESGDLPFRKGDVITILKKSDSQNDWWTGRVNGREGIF

T11: Boi1, P38041
T11 sequence (P38041 1-86, looked up): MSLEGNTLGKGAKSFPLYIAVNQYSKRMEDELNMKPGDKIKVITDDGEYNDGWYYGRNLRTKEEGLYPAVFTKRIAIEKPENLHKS

T12: Bud14, P27637
T12 sequence (P27637 247-328, looked up): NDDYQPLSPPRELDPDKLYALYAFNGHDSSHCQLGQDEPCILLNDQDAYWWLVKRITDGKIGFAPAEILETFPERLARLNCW

T13: Cdc25, P04821
T13 sequence (P04821 50-136, looked up): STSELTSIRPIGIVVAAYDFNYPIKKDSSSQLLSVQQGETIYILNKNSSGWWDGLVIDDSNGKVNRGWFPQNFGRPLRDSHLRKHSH

T14: Sla1-3, P32790
T14 sequence (P32790 344-424, looked up): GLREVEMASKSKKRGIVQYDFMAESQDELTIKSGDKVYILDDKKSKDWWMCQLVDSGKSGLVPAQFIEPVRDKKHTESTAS

T15: Boi2, P39969
T15 sequence (P39969 32-116, looked up): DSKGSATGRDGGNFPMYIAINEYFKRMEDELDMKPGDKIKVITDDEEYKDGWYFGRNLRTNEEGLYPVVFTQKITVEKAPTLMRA

T16: Bzz1-2, P38822
T16 sequence (P38822 568-633, looked up): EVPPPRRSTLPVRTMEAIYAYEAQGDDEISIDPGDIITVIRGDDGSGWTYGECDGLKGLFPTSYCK

T17: Pex13, P80667
T17 sequence (P80667 295-386, looked up): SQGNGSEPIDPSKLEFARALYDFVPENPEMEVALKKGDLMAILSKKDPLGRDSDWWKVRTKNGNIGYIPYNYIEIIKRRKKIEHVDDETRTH

T18: Lsb4, P32793
T18 sequence (P32793 402-468, looked up): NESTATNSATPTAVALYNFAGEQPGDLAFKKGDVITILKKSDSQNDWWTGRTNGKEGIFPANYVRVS

T19: Abp1, P15891
T19 sequence (P15891 535-592, looked up): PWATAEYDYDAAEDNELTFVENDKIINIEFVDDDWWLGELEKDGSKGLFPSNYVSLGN

T20: Myo5, Q04439
T20 sequence (Q04439 1072-1160, looked up): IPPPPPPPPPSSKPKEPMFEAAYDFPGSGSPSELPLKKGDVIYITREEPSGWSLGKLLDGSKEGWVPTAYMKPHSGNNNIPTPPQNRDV

T21: Bbc1, P47068
T21 sequence (P47068 1-78, looked up): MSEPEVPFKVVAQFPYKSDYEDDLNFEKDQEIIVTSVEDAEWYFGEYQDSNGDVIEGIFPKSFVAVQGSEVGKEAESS


Columns and labels:
Experiment in all cases: SPOT array
[1] = target: Bem1-2, P29366; settings: median of control spots 4347
Sequence of Bem1-2, P29366 (P29366 139-227): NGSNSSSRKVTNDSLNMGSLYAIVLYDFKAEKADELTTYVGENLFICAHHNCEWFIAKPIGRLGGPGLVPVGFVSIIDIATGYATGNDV

[2] = target: T1, Pin3, Q06449; settings: median of control spots 2171
[3] = target: Bem1-1, P29366; settings: median of control spots 4282
Sequence of Bem1-1, P29366 (P29366 55-141): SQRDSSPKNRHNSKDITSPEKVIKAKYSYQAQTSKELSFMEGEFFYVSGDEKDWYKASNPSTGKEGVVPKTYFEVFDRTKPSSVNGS

[4] = target: T2, Hof1, Q05080; settings: median of control spots 4086
[5] = target: T3, Nbp2, Q12163; settings: median of control spots 357
[6] = target: T4, Sla1-2, P32790; settings: median of control spots 712
[7] = target: GST; settings: median of control spots 978
[8] = target: T5, Bzz1-1, P38822; settings: median of control spots 4446
[9] = target: Myo3, P36006; settings: median of control spots 468
[10] = target: T6, Lsb1, P53281; settings: median of control spots 388
[11] = target: T7, Fus1, P11710; settings: median of control spots 1200
[12] = target: T8, Cyk3, Q07533; settings: median of control spots 1451
[13] = target: T9, Hse1, P38753; settings: median of control spots 1727
[14] = target: Sho1, P40073; settings: median of control spots 1148
Sequence of Sho1, P40073 (P40073 287-367): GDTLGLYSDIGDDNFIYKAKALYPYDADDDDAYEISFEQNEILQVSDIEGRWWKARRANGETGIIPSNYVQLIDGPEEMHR

[15] = target: T10, Lsb3, P43603; settings: median of control spots 406
[16] = target: T11, Boi1, P38041; settings: median of control spots 1162
[17] = target: Rvs167, P39743; settings: median of control spots 2707
Sequence of Rvs167, P39743 (P39743 419-482): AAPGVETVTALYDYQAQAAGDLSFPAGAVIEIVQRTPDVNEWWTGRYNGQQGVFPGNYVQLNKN

[18] = target: T12, Bud14, P27637; settings: median of control spots 956
[19] = target: T13, Cdc25, P04821; settings: median of control spots 969
[20] = target: T14, Sla1-3, P32790; settings: median of control spots 5475
[21] = target: T15, Boi2, P39969; settings: median of control spots 1161
[22] = target: T16, Bzz1-2, P38822; settings: median of control spots 4538
[23] = target: T17, Pex13, P80667; settings: median of control spots 1341
[24] = target: T18, Lsb4, P32793; settings: median of control spots 397
[25] = target: T19, Abp1, P15891; settings: median of control spots 935
[26] = target: T20, Myo5, Q04439; settings: median of control spots 471
[27] = target: T21, Bbc1, P47068; settings: median of control spots 796

| Binder | SPOT intensity [1] | SPOT intensity [2] | SPOT intensity [3] | SPOT intensity [4] | SPOT intensity [5] | SPOT intensity [6] | SPOT intensity [7] | SPOT intensity [8] | SPOT intensity [9] | SPOT intensity [10] | SPOT intensity [11] | SPOT intensity [12] | SPOT intensity [13] | SPOT intensity [14] | SPOT intensity [15] | SPOT intensity [16] | SPOT intensity [17] | SPOT intensity [18] | SPOT intensity [19] | SPOT intensity [20] | further results |
| --- | --- | --- | --- | --- | --- | --- | --- | --- | --- | --- | --- | --- | --- | --- | --- | --- | --- | --- | --- | --- | --- |
| RSLRKRPTSPSISGS | 5 | 8 | 0 | 13 | 198 | 1 | 3 | 0 | 9 | 26 | 44 | 1 | 55 | 295 | 14 | 5 | 2 | 22 | 52 | 44 | SPOT intensity [21]: 0; SPOT intensity [22]: 21; SPOT intensity [23]: 5; SPOT intensity [24]: 5; SPOT intensity [25]: 224; SPOT intensity [26]: 2; SPOT intensity [27]: 175 |
| ALRRRLPVTRSKINW | 7 | 10 | 0 | 14 | 149 | 0 | 2 | 0 | 10 | 46 | 25 | 2 | 35 | 196 | 4 | 13 | 8 | 6 | 46 | 73 | SPOT intensity [21]: 1; SPOT intensity [22]: 7; SPOT intensity [23]: 4; SPOT intensity [24]: 7; SPOT intensity [25]: 134; SPOT intensity [26]: 0; SPOT intensity [27]: 245 |
| GRLRPKRIAPWHLIQ | 6 | 5 | 0 | 1 | 10 | 0 | 0 | 0 | 0 | 0 | 6 | 1 | 9 | 83 | 0 | 2 | 8 | 3 | 0 | 41 | SPOT intensity [21]: 1; SPOT intensity [22]: 4; SPOT intensity [23]: 8; SPOT intensity [24]: 0; SPOT intensity [25]: 25; SPOT intensity [26]: 0; SPOT intensity [27]: 57 |
| QHQQRQPKRPKRYSL | 147 | 2 | 1 | 3 | 21 | 5 | 8 | 0 | 2 | 5 | 55 | 1 | 33 | 115 | 36 | 13 | 0 | 8 | 22 | 78 | SPOT intensity [21]: 4; SPOT intensity [22]: 17; SPOT intensity [23]: 6; SPOT intensity [24]: 101; SPOT intensity [25]: 106; SPOT intensity [26]: 2; SPOT intensity [27]: 211 |
